The results in this text go back to patent US20220152100A1, “METHODS FOR CONTROLLED ACTIVATION OR ELIMINATION OF THERAPEUTIC CELLS” (Bellicum Pharmaceuticals, Inc., priority 2014, published 2022).

The series relates to HEK293T/16 cells. The experiment in a line: SEAP-based surrogate killing assay of iCasp9 mutants. The series is classed as cell-based, human. The settings on record: in words, versus wild type. On the procedure:
Early passage HEK293T/16 cells (ATCC, Manassas, Va.) were maintained in IMDM, GlutaMAX™ (Life Technologies, Carlsbad, Calif.) supplemented with 10% FBS, 100 U/mL penicillin, and 100 […] until transfection in a humidified, 37° C., 5% CO2/95% air atmosphere. Cells in logarithmic-phase growth were transiently transfected with 800 ng to 2 μg of expression plasmid encoding iCasp9 mutants and 500 ng of an expression plasmid encoding SRα promoter driven SEAP per million cells in 15-mL conical tubes. […] GeneJammer® Transfection Reagent at a ratio of 3 μl per ug of plasmid DNA was used to transiently transfect HEK293T/16 cells in the absence of antibiotics. 100 μl or 2 mL of the transfection mixture was added to each well in 96-well or 6-well plate, respectively.
Briefly, after 65° C. heat denaturation for 45 minutes to reduce background caused by endogenous (and serum-derived) alkaline phosphatases that are sensitive to heat, 5 μl of supernatants was added to 95 μl of PBS and added to 100 μl of substrate buffer, containing 1 μl of 100 mM 4-methylumbelliferyl phosphate (4-MUP; Sigma, St. Louis, Mo.) re-suspended in 2 M diethanolamine. Hydrolysis of 4-MUP by SEAP produces a fluorescent […] with excitation/emission (355/460 nm), which can be easily measured. Assays were performed in black opaque 96-well plates to minimize fluorescence leakage between wells. […] of the mixture was seeded onto each well of a 96-well plate. […] For the assay, 4-methylumbelliferyl phosphate substrate was hydrolyzed by SEAP to 4-methylumbelliferon, a metabolite that can be excited with 364 nm and detected with an emission filter of 448 nm. Since SEAP is used as a marker for cell viability, reduced SEAP reading corresponds with increased iCaspase-9 activities.

B1: D327R: chimeric modified Caspase-9 polypeptide (protein)
chain: VDGFGDVGALESLRGNADLAYILSMEPCGHCLIINNVNFCRESGLRTRTGSNIDCEKLRRRFSSLHFMVEVKGDLTAKKMVLALLELARQDHGALDCCVVVILSHGCQASHLQFPGAVYGTDGCPVSVEKIVNIFNGTSCPSLGGKPKLFFIQACGGEQKDHGFEVASTSPEDESPGSNPEPDATPFQEGLRTFRQLDAISSLPTPSDIFVSYSTFPGFVSWRDPKSGSWYVETLDDIFEQWAHSEDLQSLLLRVANAVSVKGIYKQMPGCFNFLRKKLFFKTSASRA
Turning to B1, the “effect on basal / catalytic activity” value is recorded as “did not lower basal activity”.

B2: D330G: chimeric modified Caspase-9 polypeptide (protein)
chain: VDGFGDVGALESLRGNADLAYILSMEPCGHCLIINNVNFCRESGLRTRTGSNIDCEKLRRRFSSLHFMVEVKGDLTAKKMVLALLELARQDHGALDCCVVVILSHGCQASHLQFPGAVYGTDGCPVSVEKIVNIFNGTSCPSLGGKPKLFFIQACGGEQKDHGFEVASTSPEDESPGSNPEPDATPFQEGLRTFDQLGAISSLPTPSDIFVSYSTFPGFVSWRDPKSGSWYVETLDDIFEQWAHSEDLQSLLLRVANAVSVKGIYKQMPGCFNFLRKKLFFKTSASRA
Regarding B2, the “effect on basal / catalytic activity” value was “less basal activity than wild type Caspase-9”.

B3: F326K: chimeric modified Caspase-9 polypeptide (protein)
chain: VDGFGDVGALESLRGNADLAYILSMEPCGHCLIINNVNFCRESGLRTRTGSNIDCEKLRRRFSSLHFMVEVKGDLTAKKMVLALLELARQDHGALDCCVVVILSHGCQASHLQFPGAVYGTDGCPVSVEKIVNIFNGTSCPSLGGKPKLFFIQACGGEQKDHGFEVASTSPEDESPGSNPEPDATPFQEGLRTKDQLDAISSLPTPSDIFVSYSTFPGFVSWRDPKSGSWYVETLDDIFEQWAHSEDLQSLLLRVANAVSVKGIYKQMPGCFNFLRKKLFFKTSASRA
Turning to B3, the “effect on basal / catalytic activity” value is recorded as “did not lower basal activity”.

B4: Q328R: chimeric modified Caspase-9 polypeptide (protein)
chain: VDGFGDVGALESLRGNADLAYILSMEPCGHCLIINNVNFCRESGLRTRTGSNIDCEKLRRRFSSLHFMVEVKGDLTAKKMVLALLELARQDHGALDCCVVVILSHGCQASHLQFPGAVYGTDGCPVSVEKIVNIFNGTSCPSLGGKPKLFFIQACGGEQKDHGFEVASTSPEDESPGSNPEPDATPFQEGLRTFDRLDAISSLPTPSDIFVSYSTFPGFVSWRDPKSGSWYVETLDDIFEQWAHSEDLQSLLLRVANAVSVKGIYKQMPGCFNFLRKKLFFKTSASRA
B4: the “effect on basal / catalytic activity” value was “did not lower basal activity”.

B5: A331K: chimeric modified Caspase-9 polypeptide (protein)
chain: VDGFGDVGALESLRGNADLAYILSMEPCGHCLIINNVNFCRESGLRTRTGSNIDCEKLRRRFSSLHFMVEVKGDLTAKKMVLALLELARQDHGALDCCVVVILSHGCQASHLQFPGAVYGTDGCPVSVEKIVNIFNGTSCPSLGGKPKLFFIQACGGEQKDHGFEVASTSPEDESPGSNPEPDATPFQEGLRTFDQLDKISSLPTPSDIFVSYSTFPGFVSWRDPKSGSWYVETLDDIFEQWAHSEDLQSLLLRVANAVSVKGIYKQMPGCFNFLRKKLFFKTSASRA
As for B5, the “effect on basal / catalytic activity” value is “did not lower basal activity”.

B6: T317A: chimeric modified Caspase-9 polypeptide (protein)
chain: VDGFGDVGALESLRGNADLAYILSMEPCGHCLIINNVNFCRESGLRTRTGSNIDCEKLRRRFSSLHFMVEVKGDLTAKKMVLALLELARQDHGALDCCVVVILSHGCQASHLQFPGAVYGTDGCPVSVEKIVNIFNGTSCPSLGGKPKLFFIQACGGEQKDHGFEVASTSPEDESPGSNPEPDAAPFQEGLRTFDQLDAISSLPTPSDIFVSYSTFPGFVSWRDPKSGSWYVETLDDIFEQWAHSEDLQSLLLRVANAVSVKGIYKQMPGCFNFLRKKLFFKTSASRA
As for B6, the “effect on basal / catalytic activity” value is reported as “can reduce basal activity without a large shift in the IC50”.

B7: T317C: chimeric modified Caspase-9 polypeptide (protein)
chain: VDGFGDVGALESLRGNADLAYILSMEPCGHCLIINNVNFCRESGLRTRTGSNIDCEKLRRRFSSLHFMVEVKGDLTAKKMVLALLELARQDHGALDCCVVVILSHGCQASHLQFPGAVYGTDGCPVSVEKIVNIFNGTSCPSLGGKPKLFFIQACGGEQKDHGFEVASTSPEDESPGSNPEPDACPFQEGLRTFDQLDAISSLPTPSDIFVSYSTFPGFVSWRDPKSGSWYVETLDDIFEQWAHSEDLQSLLLRVANAVSVKGIYKQMPGCFNFLRKKLFFKTSASRA
For the molecule B7, the “effect on basal / catalytic activity” value is “no effect”.

B8: L329K: chimeric modified Caspase-9 polypeptide (protein)
chain: VDGFGDVGALESLRGNADLAYILSMEPCGHCLIINNVNFCRESGLRTRTGSNIDCEKLRRRFSSLHFMVEVKGDLTAKKMVLALLELARQDHGALDCCVVVILSHGCQASHLQFPGAVYGTDGCPVSVEKIVNIFNGTSCPSLGGKPKLFFIQACGGEQKDHGFEVASTSPEDESPGSNPEPDATPFQEGLRTFDQKDAISSLPTPSDIFVSYSTFPGFVSWRDPKSGSWYVETLDDIFEQWAHSEDLQSLLLRVANAVSVKGIYKQMPGCFNFLRKKLFFKTSASRA
With B8, the “effect on basal / catalytic activity” value was “did not lower basal activity”.

B9: Q328K: chimeric modified Caspase-9 polypeptide (protein)
chain: VDGFGDVGALESLRGNADLAYILSMEPCGHCLIINNVNFCRESGLRTRTGSNIDCEKLRRRFSSLHFMVEVKGDLTAKKMVLALLELARQDHGALDCCVVVILSHGCQASHLQFPGAVYGTDGCPVSVEKIVNIFNGTSCPSLGGKPKLFFIQACGGEQKDHGFEVASTSPEDESPGSNPEPDATPFQEGLRTFDKLDAISSLPTPSDIFVSYSTFPGFVSWRDPKSGSWYVETLDDIFEQWAHSEDLQSLLLRVANAVSVKGIYKQMPGCFNFLRKKLFFKTSASRA
As for B9, the “effect on basal / catalytic activity” value was “did not lower basal activity”.

B10: D330N: chimeric modified Caspase-9 polypeptide (protein)
chain: VDGFGDVGALESLRGNADLAYILSMEPCGHCLIINNVNFCRESGLRTRTGSNIDCEKLRRRFSSLHFMVEVKGDLTAKKMVLALLELARQDHGALDCCVVVILSHGCQASHLQFPGAVYGTDGCPVSVEKIVNIFNGTSCPSLGGKPKLFFIQACGGEQKDHGFEVASTSPEDESPGSNPEPDATPFQEGLRTFDQLNAISSLPTPSDIFVSYSTFPGFVSWRDPKSGSWYVETLDDIFEQWAHSEDLQSLLLRVANAVSVKGIYKQMPGCFNFLRKKLFFKTSASRA
As for B10, the “effect on basal / catalytic activity” value is recorded as “less basal activity than wild type Caspase-9”.

B11: D330V: chimeric modified Caspase-9 polypeptide (protein)
chain: VDGFGDVGALESLRGNADLAYILSMEPCGHCLIINNVNFCRESGLRTRTGSNIDCEKLRRRFSSLHFMVEVKGDLTAKKMVLALLELARQDHGALDCCVVVILSHGCQASHLQFPGAVYGTDGCPVSVEKIVNIFNGTSCPSLGGKPKLFFIQACGGEQKDHGFEVASTSPEDESPGSNPEPDATPFQEGLRTFDQLVAISSLPTPSDIFVSYSTFPGFVSWRDPKSGSWYVETLDDIFEQWAHSEDLQSLLLRVANAVSVKGIYKQMPGCFNFLRKKLFFKTSASRA
Take B11: the “effect on basal / catalytic activity” value is “less basal activity than wild type Caspase-9”.

B12: L329G: chimeric modified Caspase-9 polypeptide (protein)
chain: VDGFGDVGALESLRGNADLAYILSMEPCGHCLIINNVNFCRESGLRTRTGSNIDCEKLRRRFSSLHFMVEVKGDLTAKKMVLALLELARQDHGALDCCVVVILSHGCQASHLQFPGAVYGTDGCPVSVEKIVNIFNGTSCPSLGGKPKLFFIQACGGEQKDHGFEVASTSPEDESPGSNPEPDATPFQEGLRTFDQGDAISSLPTPSDIFVSYSTFPGFVSWRDPKSGSWYVETLDDIFEQWAHSEDLQSLLLRVANAVSVKGIYKQMPGCFNFLRKKLFFKTSASRA
As for B12, the “effect on basal / catalytic activity” value was “did not lower basal activity”.

B13: ^316ATPF^319AVPI: Caspase-9 with XIAP-binding tetrapeptide ATPF replaced by AVPI from SMAC/DIABLO (protein, UniProt P55211 1-416, looked up, variant T317V F319I)
chain: MDEADRRLLRRCRLRLVEELQVDQLWDALLSRELFRPHMIEDIQRAGSGSRRDQARQLIIDLETRGSQALPLFISCLEDTGQDMLASFLRTNRQAAKLSKPTLENLTPVVLRPEIRKPEVLRPETPRPVDIGSGGFGDVGALESLRGNADLAYILSMEPCGHCLIINNVNFCRESGLRTRTGSNIDCEKLRRRFSSLHFMVEVKGDLTAKKMVLALLELAQQDHGALDCCVVVILSHGCQASHLQFPGAVYGTDGCPVSVEKIVNIFNGTSCPSLGGKPKLFFIQACGGEQKDHGFEVASTSPEDESPGSNPEPDAVPIQEGLRTFDQLDAISSLPTPSDIFVSYSTFPGFVSWRDPKSGSWYVETLDDIFEQWAHSEDLQSLLLRVANAVSVKGIYKQMPGCFNFLRKKLFFKTS
modifications: ATPF replaced by SMAC AVPI motif
B13: the “effect on basal / catalytic activity” value is “no effect”.
